Results from publication PMC10397247.

Assays:
Assay in all cases: two-hybrid library CCmax;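 also: natural log of median RNA to DNA barcode read ratio; higher means stronger binding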
4H55-AA = molecular target: T1, 4H55-AA; details: mean of both orientations
T1 chain: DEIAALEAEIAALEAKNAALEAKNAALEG

4H369-AA = molecular target: T2, 4H369-AA
T2 chain: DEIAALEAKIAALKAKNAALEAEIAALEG

4H481-AA = molecular target: T3, 4H481-AA; details: mean of both orientations
T3 chain: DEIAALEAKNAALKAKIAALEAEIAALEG

4H4033-AA = molecular target: T4, 4H4033-AA; details: mean of both orientations
T4 chain: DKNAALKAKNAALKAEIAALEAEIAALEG

4H3922-AA = molecular target: T5, 4H3922-AA; details: mean of both orientations
T5 chain: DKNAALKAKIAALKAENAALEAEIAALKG

4H662-AA = molecular target: T6, 4H662-AA; details: mean of both orientations
T6 chain: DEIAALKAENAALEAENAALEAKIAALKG

4H816-AA = molecular target: T7, 4H816-AA; details: mean of both orientations
T7 chain: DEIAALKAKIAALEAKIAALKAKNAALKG

4H390-AA = molecular target: T8, 4H390-AA
T8 chain: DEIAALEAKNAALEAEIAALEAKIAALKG

4H87-AA = molecular target: T9, 4H87-AA; details: mean of both orientations
T9 chain: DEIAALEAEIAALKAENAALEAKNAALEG

4H510-AA = molecular target: T10, 4H510-AA; details: mean of both orientations
T10 chain: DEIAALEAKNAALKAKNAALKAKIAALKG

4H3940-AA = molecular target: T11, 4H3940-AA; details: mean of both orientations
T11 chain: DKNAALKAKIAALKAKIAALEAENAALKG

4H775-AA = molecular target: T12, 4H775-AA; details: mean of both orientations
T12 chain: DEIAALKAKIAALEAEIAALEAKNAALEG

4H_APH = molecular target: T13, 4H_APH
T13 chain: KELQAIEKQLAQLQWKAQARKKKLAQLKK

4H895-AA = molecular target: T14, 4H895-AA; details: mean of both orientations
T14 chain: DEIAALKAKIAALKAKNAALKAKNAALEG

4H_GCN4 = molecular target: 4H_GCN4
4H_GCN4, sequence (chain, as listed by the source): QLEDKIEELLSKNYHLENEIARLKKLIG

4H58-AA = molecular target: T15, 4H58-AA
T15 chain: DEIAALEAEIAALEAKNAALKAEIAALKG

GCN2_T = molecular target: GCN2_T
4H_BCR = molecular target: T16, 4H_BCR; details: mean of both orientations
T16 chain: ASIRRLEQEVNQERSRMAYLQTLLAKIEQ

Q: Which results are given for DEIAALEAKIAALKAKNAALEAEIAALEG [4H369-AA]?
A: interaction score (4H55-AA): -0.33; interaction score (4H369-AA): -0.526; interaction score (4H481-AA): -0.912; interaction score (4H4033-AA): -0.678; interaction score (4H3922-AA): 0.000191; interaction score (4H662-AA): 1.3

Q: What does the source list for DEIAALEAKNAALEAEIAALEAKIAALKG [4H390-AA]?
A: interaction score (4H816-AA): 0.183; interaction score (4H390-AA): 2.23; interaction score (4H87-AA): -1.41; interaction score (4H510-AA): 1.57; interaction score (4H3940-AA): -0.115; interaction score (4H775-AA): -0.316

Q: Which interaction score (4H_APH) does the source give for DEIAALEAEIAALEAKNAALKAEIAALKG [4H58-AA] here?
A: -1.68

Q: What about the interaction score (4H895-AA) of the same binder?
A: -0.545

Q: What about the interaction score (4H_GCN4) of the same binder?
A: 0.011

Q: What about the interaction score (4H58-AA) of the same binder?
A: 1.75

Q: What about the interaction score (GCN2_T) of the same binder?
A: -0.172

Q: What about the interaction score (4H_BCR) of the same binder?
A: -2.14
